# Data: the DeepSol protein solubility set
# Assay: soluble on expression in E. coli; label from the status in PepcDB or PDB records
row,Sequence,soluble on expression in E. coli
1,MKHITIIGAGLAGTLCGLYLARRGYEVELFESRPDIRNSPTDYGRSINLALSCRGITALKAMNLLSEVNKIMVPMRARAIHEANGEVHYQPFGRYIDEYINAISRSDLNALLLNKAELCPNIKLHFNMKLHSLDIHNKKIKFENKNGDFVEASYHRLIGADGAPSHVRDMLKNEGIVSASRDFLSHGYKELSISKKHTKGMAREHLHLWPRDSFMLLGNPNPDDSITGSLFLANEGKDSFAELNNEEKLHLFFKTQFPDAYAAMPNLVQEFFGNPTGHLSTIQCSPWYYKDECLLIGDAAHGIIPFFGQGMNSAFEDCRILDELLDEYQDDWSRVNPLFYEQRKVNTDAIAKMSMDNYHEIHSDIRNPKFILQKQIERELMLRYPEHYVSMHVLVMFTNTPYAKAMAIGELQSGLLEQICFPITDIKELNWQEVEKLLGIYDKKLAKIILEHHHHHH,soluble
2,MKHMLIAGGGIGGLSAAISLRKAGFSVTLCEAASENRKTGAGILQPQNALAVLKELGVFEDCCKHGFQTEWFKTFDEQGNLLFQVSESFLDDSLPGRNNILRKTLNDILMKHAEAVGVDIKWGKKVVAYEETAESVTALCEDGEKMQADILAGFDGIHSVVRDKMLQKETEKEHLGMGAWRFYIELPDYTFEDATFMYRSGDTQIGVVPLAQHAGYVFVLQPCTSDYWDEEDTRFDRVKEILSGFRGLDFVTKHMSKQHPVIFNKLEQVAVQEPWHKGRVIIGGDAAHAGAPTLAQGAAMAIEDAIVLAEELQNHADHETALQAYYKRRAPRALKVQNLSSEIVRRRLKGEPGAEELIGECYAVLREGYLEHHHHHH,not soluble
3,MKHTEESLMSTTEKSRKAEEDDEKDMKKRTQFPSSSTSSDPPVGIGGSGALVVNRRRQEGNPVLKYVRNVRYEWGDIGPDFECGPTFGVVYLSFKYHKQHPEYVYTRINGNAENRYRNKVLLGYCNMEEPRHVLRELNMICFREAWTFVVVYTVEEAAEYIELFKTTQKKEITIKKKAIDDGGDSSMSDERRRNREAAIGFLTAARSITKTDADRLLFHFGTLQAISTASETSISACPGVGPIKAKNLHSFLHAIISPNEQD,not soluble
4,MKIAIIGATGHAGSAIFKEALKRGHEVTGYVRHPDKSVGILPPDADLIQQDAFTLTREQLTGYDAVIDAFATTVEQAYLHIDLADHLIHELRNTDKPRVIFILGAGSLKNGDQTLYDTLKKDPHAAAFINTPLNQFRELQLLRWTDNVNWLGISPSANFQPGPATAYVRGKDELLKDDSGKSVLNSDTLAVALLDELENPTIKQARFTARNALEHHHHHH,soluble
5,MKICLIDETGAGDGALSVLAARWGLEHDEDNLMALVLTPEHLELRKRDEPKLGGIFVDFVGGAMAHRRKFGGGRGEAVAKAVGIKGDYLPDVVDATAGLGRDAFVLASVGCRVRMLERNPVVAALLDDGLARGYADAEIGGWLQERLQLIHASSLTALTDITPRPQVVYLDPMFPHKQKSALVKKEMRVFQSLVGPDLDADGLLEPARLLATKRVVVKRPDYAPPLANVATPNAVVTKGHRFDIYAGTPV,not soluble
6,MKIEKINENKIKVTISIDDLLERNIDLDTLNYNTPAAQELFWDMMEQAEIQFGFDASDSQICVEAIPDPEEGFVIIITKLDEDGEFESIHKYIKNRFRKSDLRVRKRNSRVSSSIVIYFFNNFEDLCSVCQKLRDIYSGESTLYRLKGVYYLVLTKNSWSVANLRSFEPILSEFGTKVSNVSFYEGYLNEHGEKIIEYNAVETINDYFHR,soluble
7,MKIGIFTDCYYPQINGVVTSTMNLQKELEKLNHEVYIITTTFPNFKDEDEKHIIRIPSIPFFKWSEFRIGLFLKHTKAYNKVKALNFDIVHTQTEFSMGNFGTFIAKDLNIPCIHTYHTVYEEYTHYISNFGKSPLKKVVRKLSKRYIAHFSGVIAPTEKTRDLLISYGVKNKIYVVPTGINLEKFKKDIPDAETNSLLKSFNIKKDSFKLIFLGRISKEKNIETLINIMPKIVSENNNIQLIIVGDGPDRLELEERVRYLDLQDNVIFTNRIPNDKVPIYYKAADLFISPSKTETQGLTILEAMAAGVPVLVYDDTNIKGLVLHKKTGLLFKENDELLDNIKFALNNKEEIQSYAKEAFKIAEDFSSANFAKKVERIYKELINQ,not soluble
8,MKIGIIGATGKAGSRILKEALDRGHEVTAIVRNAAKITEENVKVLEKDVFSLTSNDLQAFDVVVNAFGAPAGHDHLHVDAGNVLIEAMKGAPNTKLVVVGGAGSLFVDEEKTTRVFETPGFPEEYLATAQNQGKNLEILQQTNDITWTFISPSALFALGKRTGSYKAGKDNLLVNAKGDSYVSYEDFAVAALDEIENPKHVNERFTVVSEAE,not soluble
9,MKIHKTLTPWAAALLLASTAWPALAEVSTVRLAKQFGIGYLPLTLVEELDLLEKHAAASGHEITTEWLRFTGGSGMNEALLSGNLDLAAGGTGPLFTIWARTRENLKIKGVAALASMPLHLMTSNPEVKSLADFSQGDKIALPAVKTSIQAVTLQMASKQAFGPDKATAMDAFTVSMGHPDAQLALTGGQSEVTAHFGSPPFQNLEAKVEGIHKVLDSYDVLGGSHTFTVVWAADKFISENPEITKAFMAALEESMELISTNPEKAAEIWMAAERSPLSREEVVALIRDEQTVWTTTPERTLPYVEFLSESGLIKTSAEDWSEIFFDTMSGKEGS,not soluble
10,MKIKEVIVVEGKDDTAAIRRAVDADTIETNGAAVGADVIERIKLAKERRGVIIFTDPDFPGEKIRRTIAEQVPGCKHAFLPREAAKAKNGKGIGVEHASPDEIRRALANVYEEASDWKEEITFAELIEAGLIGGAMARRRRQRLGEELKIGYANGRQFHKRLQVFRISRDAFYAALAHVMQEEADDV,not soluble
11,MKILAFETSTEACSVALHVDGAVRERFELAPRRHAELALPWAEQLLAEAGISRRQLDAIAVGRGPGAFSGVRLAIGIVQGIALALDLPVLAISTLQVLALRAPAEASHVLACIDARMGEVYAGLFERQGEALLTLGSEVVCAPEAVLLPQSTPQWAGVGTGLAAGEMPLQQRFAGRLSSVDAAALPHAADLLTLALPAALRGEGVAPERVEPAYLRDNVALTLVEQQAARAAKAAAVPRLEHHHHHH,not soluble
12,MKILRFNEGRWGVLEGELVLETDGPGGNPTGRRYDLASVTLLPPATPTKIVCVGRNYREHIREMGHDFGEDLPKEPGLFLKGPNALARPGNPRDPWGTAEPVPYPFFTEELHYEGELAVVVGDRMRHVPPEKALDHVLGYTVAVDITARDVQKKDLQWVRAKSADKFLPLGPWLETDLNPQDTWVRTYVNGTLRQEGHTSQMIFSVAEILSYISTFMTLEPLDVVLTGTPEGVGALRPGDRLEVAVEGVGTLFTLIGPKEERPW,soluble
13,MKIPIPSIGHVALLASAILFASSANAASDEDGIIIYNAQHESFAKSWAEGFTKDTGIKVTLRNGKDSELGNQLIQEGSSSPADVFLTENSPAMVLVDNAKLFAPLDAATQAQVAKEYRPEDGRWTGIAARSTVFVYNPAKISEAELPKSLMDLAKPEWKGRWAASPSGADFQAIVSAMLALKGEQATLEWLKAMKTNATAYKGNSTVMKAVNAGQIDGGVIYHYYPFVDQAKTGENSGNIKLHYFKNKDPGAFVSISGAGVLASSKHPQQAQKFVQWVTGKAGQDFLRESNSAFEYAVGVNAASNPKLVPLKDLDPPKVEVSKLNSKKVVELMTEAGLL,not soluble
14,MKIRSTALVKGFRQSTPYVNAHRGKTMVIMLGGEAVAHNNFGNIINDIALMHSLGIKVVVVYGARPQINQLLEKQDLTTPYHKNIRITDEAALSVVMQAAGQLQLAITARLSMSLNNTPMAGTQLNVVSGNFVIAQPLGVDDGVDYCHSGRIRRIDTDAINRTLDQGSIVLLGPIASSVTGECFNLLSEEVATQLAIKLGADKLIGFCSEQGVIDDNGNAVAELLPIEAEHVIKTLSENHASDSDYNTGTLRFLKGSIAACRAGVPRSHLISYKVDGALIQELFSFDGIGTQVVMASAEQVRQAGIDDIGGILELIHPLEEQGILVRRSREQLEQEIGKFTIIEKDGLIIGCAALYPYSEERKAEMACVAIHPDYRDGNRGLLLLNYMKHRSKSENINQIFVLTTHSLHWFREQGFYEVGVDYLPGAKQGLYNFQRKSKILALDL,not soluble
15,MKIYVDADACPVKDVIIFEATKAEIPVTLVTSFSHYSNAEQPKGVETIYVDSGADAADYRIMQLAQKEDLIVTQDYGLASLALAKGCIVLHHKGYKYTNENIDQLLQTRYLSAMVRKSGKRTKGPKPFTAEDKEKFRALFKSMIPLLEHHHHHH,soluble
16,MKIYVSCDIEGLAGIATFDMEKEDTVLFRELYHQHVAWLIEGIQKSAKNEQITEITIADSHSRGLNLAYARLAEMDERISLVSGFPRMDYMMSGLDSSYDVVFFLGYHAGIGKQKGNMDHGYSASVAYDLKINDLAMNETTINAAYASELGVPVGLIIGESGLEEQLFQEKMMPEVPFVSTKESLGRYAIKNRPMQQVREAIVATTSQVLTSFALSELPRYALQTPATVKLQCVTTAQADRIEMLPMIKRIDGRTVSFVGETMKDVMNGIVAVVGLGGTSY,not soluble
17,MKKELLTRFMEKRIVELKKEQRNGTAHVYQSTLNRLKNFMNGREITFSQLTPEWLALFEQKLLADQLKWNTISTYMRMLRSVYNQALERGVATYVPRLFNKVHTGIDCPVKRAVSPEVICRLMTDRKPLPGKLAFSRDLFVLLFLLRGMPFVDLAFLRRCDLQGNVITYHRRKTSRKLTVVVGKEAMEIIQKYMYAIPDSPYLFPIIQNPGKDEYGQYARMLRLQNYRLTQVANILGIRDRLSTYTARHTWATTALRQNYNSSLICDAMGHSSVKVTETYFQPYRDDEVNRMNSSLITYILSKKKRGTDKKIRS,not soluble
18,MKKHTLALCLAAILAPAAHAAEIKVEDLTWKAITFGQSTDMNFGSTILPEKVGVNQVTVNGEAVAAGKLASTFTIESRGGKLANSHEGLTFYYTELPTDVNFTLSADVVLEQLGPETGATPNRQEGAGLMVRDILGAERLVPQPEGHEEFPSASNMVMNLMRSHTRANDGMTNINASFREGVYQPWGTPGNRLSRVDYVEGVPYGTAETYRMTLTRTNDGFKVSYRNGEKFVEQAVKGANANIVEMQNSDSQYVGFFASRNAKMTVSNVDLQLAAADTVDAPKYAAKQGELVFQIASSPRSATKEYPVQARANYSGEFEVLHNDKVVAKQTVTAGELFSQWLTLDSGANQMEVRFTAIDGPNKETQAHRYSVDVVSLPDPMTL,not soluble
19,MKKIDRVIESIQSRITEGRLKPGQKLPSIRQAVDEFGVSKNTVIEAYERLSARGLIRSVHGAGFFVCASTPAPLSKATQPAHIVEAVDRLTLLTAQLDQEKLPVRVGDGRPPQSWMNDALPLRMKGNIFKNFVGDPSGYGGVSGHLQLRELIAARSNRADMSVHPDQIVTTFGANHALDLIIRRYLEPGDVVLVDDPGYYPLLGKFKLAKIRAIGVPRTPTGPDLDVMETLAAAHGPKMFFTQSTCQNPTGSSMSLPVAHGVLQVAQRFGLMVIDNDPFTDLPGNAGVPLSALDAFNSVIAISSFSKLLSASFRVGYVIARPEVARELTELKLLTVVNSSRFSEMVIAELIKSQRYGRHLNKLVNRLEEARRDYHRKVRKLGLDVFCAQETGYYSFLQLPHTVDEGQLVRKASAAGIMLAPGRLFAVDENPARPALRINVTRADDPRFYRFLKRQVIDGQV,not soluble
20,MKKIIAILLLVIGSIGIGKDLDQYESKRVFDKIIEVALTGDYEKYKNDKEMTNALEELVKASEYLDVHRIFSDGNKYIVLDVEEQGNRSILTVKAVYKIYRDISEEKYRQIMEREVLELMKYDMEEIDEKTYKKNVYNIITDIAGNDFEIKEEVIKMNMIKKEKWDMEDNSDLIQRLYPAIFYMMESLNKRYFKTSEEGNI,not soluble
